{
  "source": "patent US20200332281",
  "about": "(published 2020)",
  "binders": {"B1": {"name": "T_beads_re_apt.9 (ssDNA)", "DNA": "AGCAGCACAGAGGTCAGATGGGGGATGGTTAGGGTGGCTTAATATTGACCCCTATGCGTGCTACCGTGAA"}, "B2": {"name": "T_apt.5 (ssDNA)", "DNA": "AGCAGCACAGAGGTCAGATGGTGGATTTGGGTGGATTGGTATGAACTGACCCTATGCGTGCTACCGTGAA"}, "B3": {"name": "T_apt.2 (= T_beads_apt.5) (ssDNA)", "DNA": "AGCAGCACAGAGGTCAGATGGAGTCGGGTGGCTATTGGGTATGGACCGTGCCTATGCGTGCTACCGTGAA"}, "B4": {"name": "T_apt.4 (= T_beads_re_apt.8) (ssDNA)", "DNA": "AGCAGCACAGAGGTCAGATGTTGGTGGGGTGGCTTTGGGTATTTACTTGGCCTATGCGTGCTACCGTGAA"}, "B5": {"name": "T_apt.6 (ssDNA)", "DNA": "AGCAGCACAGAGGTCAGATGGTTGGGTAGGGTTGGATAGGGGCAAGTAGACCTATGCGTGCTACCGTGAA"}, "B6": {"name": "T_apt.3 (= T_beads_apt.1, T_beads_re_apt.7) (ssDNA)", "DNA": "AGCAGCACAGAGGTCAGATGGATGGTGTAGGTTGGGAGAGGCTCAGTGCCCCTATGCGTGCTACCGTGAA"}},
  "data": [
    {"biological_target": "T1, thrombin (UniProt P00734;P00734 P00734:328-363,P00734:364-622)", "experiment": "SPR; no specific response", "values": [
      {"binder": "B1", "binding result": "no binding"},
      {"binder": "B2", "binding result": "no binding"},
      {"binder": "B3", "binding result": "no binding"}
    ]},
    {"biological_target": "T1, thrombin", "experiment": "SPR; HBS-EP, 150 mM NaCl, pH 7.0", "units": {"Kd": "nM"}, "values": [
      {"binder": "B4", "Kd": 81},
      {"binder": "B5", "Kd": 55},
      {"binder": "B6", "Kd": 76}
    ]}
  ]
}
